The values that follow come from article PMC8571081.

For assay [1], the target named is Recombinant mouse IL-12Rβ2-Fc chimera protein (mouse) (UniProt P97378). Kind of assay: SPR; IL-23R-Fc and IL-12Rβ2-Fc captured on a Protein A chip (~150 RU); HIL-12 (0.3-5 nM) or HIL-23 (15-1000 nM) variants injected at 30 μl/min; 25 °C, PBS pH 7.4, 0.05% P20; multi-cycle; 1:1 binding model; Biacore X100. (In SPR one partner is held on a chip, and binding of the other changes the refractive index at the surface.)
Chain of UniProt P97378 (P97378 24-637, stated change not applied): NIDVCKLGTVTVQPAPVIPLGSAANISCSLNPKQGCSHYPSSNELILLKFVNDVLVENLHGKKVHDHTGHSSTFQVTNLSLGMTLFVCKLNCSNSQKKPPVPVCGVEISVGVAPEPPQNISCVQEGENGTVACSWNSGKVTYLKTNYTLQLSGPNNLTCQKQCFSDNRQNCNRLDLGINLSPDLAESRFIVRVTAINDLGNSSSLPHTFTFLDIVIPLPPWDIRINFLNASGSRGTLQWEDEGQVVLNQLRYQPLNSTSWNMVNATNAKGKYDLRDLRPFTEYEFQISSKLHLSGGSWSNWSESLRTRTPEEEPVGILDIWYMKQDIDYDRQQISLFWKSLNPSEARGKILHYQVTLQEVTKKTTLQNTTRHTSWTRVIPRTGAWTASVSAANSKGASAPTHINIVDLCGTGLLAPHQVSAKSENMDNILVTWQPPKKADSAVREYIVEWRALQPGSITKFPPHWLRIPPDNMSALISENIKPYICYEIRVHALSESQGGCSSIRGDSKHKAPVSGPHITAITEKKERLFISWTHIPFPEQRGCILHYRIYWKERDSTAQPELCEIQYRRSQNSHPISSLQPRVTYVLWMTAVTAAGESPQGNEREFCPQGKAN

Assay [2] has as its target Recombinant mouse IL-23R-Fc chimera protein (mouse) (UniProt Q8K4B4). The assay is described as above.
Chain of UniProt Q8K4B4 (Q8K4B4 24-374, change not shown): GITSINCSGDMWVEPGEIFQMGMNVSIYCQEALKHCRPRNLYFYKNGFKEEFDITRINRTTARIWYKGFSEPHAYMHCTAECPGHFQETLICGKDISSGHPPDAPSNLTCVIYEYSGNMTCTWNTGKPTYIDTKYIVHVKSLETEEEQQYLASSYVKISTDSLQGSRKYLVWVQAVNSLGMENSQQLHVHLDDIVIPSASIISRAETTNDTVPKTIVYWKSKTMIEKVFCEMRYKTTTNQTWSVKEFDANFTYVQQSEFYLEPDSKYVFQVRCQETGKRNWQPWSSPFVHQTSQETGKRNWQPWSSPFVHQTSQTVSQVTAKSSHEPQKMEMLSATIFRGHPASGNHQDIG

Broadly, the Kd is a measure of binding affinity in units of concentration. The term koff denotes the first-order rate constant of dissociation. What is called kon is the rate constant with which the complex forms. For the substance “murine Hyper-IL-12 (HIL-12), purified with Twin-Strep-tag (ligand)”, in assay [1], the Kd worked out at 0.987 nM, the off-rate constant (koff) turned out to be 0.0019 s⁻¹ and the kon came to 1.9e+06 M⁻¹ s⁻¹.
In the case of “murine Hyper-IL-23 (HIL-23), purified with Twin-Strep-tag (from UniProt P43432 23-335) (ligand)”, in assay [2], the Kd amounted to 40 nM, the koff was determined as 0.0012 s⁻¹ and the kon was 30000 M⁻¹ s⁻¹.
With “HIL-12D36K/W37K/T38K, purified with Twin-Strep-tag (ligand)”, in assay [1], the Kd is 0.84 nM, the koff is 0.0027 s⁻¹ and the kon worked out at 3.2e+06 M⁻¹ s⁻¹.
Consider “HIL-23D36K/W37K/T38K, purified with Twin-Strep-tag (from UniProt P43432 23-335) (ligand)”, for which, in assay [2], the equilibrium dissociation constant (Kd) worked out at 57 nM, the koff amounted to 0.0011 s⁻¹ and the kon was found to be 19000 M⁻¹ s⁻¹.
